B1: cyclic III peptide 7 (KLKLK-T1-AVVSW-T1) (peptide)
peptide: KLKLKAVVSW
modifications: here or on the partner: head-to-tail cyclic; two T1 linkers (NH2CH2CH2N(SO2Me)CH2COOH) join the strands
B2: cyclic III peptide 3 (KLKLK-T1-MVVSA-T1) (peptide)
peptide: KLKLKMVVSA
modifications: here or on the partner: head-to-tail cyclic; two T1 linkers (NH2CH2CH2N(SO2Me)CH2COOH) join the strands
B3: cyclic III peptide 4 (KLKLK-T1-MVVAW-T1) (peptide)
peptide: KLKLKMVVAW
modifications: here or on the partner: head-to-tail cyclic; two T1 linkers (NH2CH2CH2N(SO2Me)CH2COOH) join the strands
B4: cyclic III peptide 5 (KLKLK-T1-MVASW-T1) (peptide)
peptide: KLKLKMVASW
modifications: here or on the partner: head-to-tail cyclic; two T1 linkers (NH2CH2CH2N(SO2Me)CH2COOH) join the strands
B5: cyclic III peptide 6 (KLKLK-T1-MAVSW-T1) (peptide)
peptide: KLKLKMAVSW
modifications: here or on the partner: head-to-tail cyclic; two T1 linkers (NH2CH2CH2N(SO2Me)CH2COOH) join the strands

These binders were tested against integrins (assay: cell-based or functional assay).

| IC50 (µM), bioactivity of cyclic III peptide analogs [µM] | Binder |
| --- | --- |
| 31 | B1 |
| 57 | B2 |
| 4 | B3 |
| 19 | B4 |
| 6 | B5 |

— US8853149
